Here are results for 34 sequences from the supplement of paper PMC7877785.

± gives the uncertainty stated by the source.

A short description of this data set: self-splicing fitness, log relative to wild type (ln ratio); higher = more splicing; Tetrahymena group I intron in knt gene, E. coli kanamycin selection, DiMSum; sequences stand for … in CUCUCU…GGAGGGAAAAGUUAUCAGGCAUGCACCUGGUAGCUAGUCUUUAAACCAAUAGAUUGCAUCGGUUUAAAAGGCAAGACCGUCAAAUUGCGGGAAAGGGGUCAACAGCCGUUCAGUACCAAGUCUCAGGGGAAACUUUGAGAUGGCCUUGCAAAGGGUAUGGUAAUAAGCUGACGGACAUGGUCCUAACCACGCAGCCAAGUCCUAAGUCAACAGAUCUUCUGUUGAUAUGGAUGCAGUUCACAGACUAAAUGUCGGUCGGGGAAGAUGUAUUCUUCUCAUAAGAUAUAGUCGGACCUCUCCUUAAUGGGAGCUAGCGGAUGAAGUGAUGCAACACUGGAGCCGCUGGGAACUAAUUUGUAUGCGAAAGUAUAUUGAUUAGUUUUGGAGUACUCGUGGUCG
Put shortly:
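DiMSum derived fitness as the error-weighted combination of fold changes across replicates, kanamycin versus no kanamycin, normalised to wild type. E. coli BL21(DE3) held the library, which randomised all eight P1ex-region intron nucleotides within the knt kanamycin-resistance gene on pET-22b(+). Six replicate transformations grew overnight at 37°C or 30°C on LB agar with or without 25 μg/mL kanamycin, also containing 100 μg/mL carbenicillin, 50 μM IPTG and 0.2% rhamnose, and pooled colonies were amplicon-sequenced on an Illumina HiSeq 2500.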

Consider GCCGAGCAAUAUUACGUAGC, for which the “self-splicing fitness (ln)” value reads like this: (30 °C) -2.02 ± 0.12; (37 °C) -1.84 ± 0.14.

With CCGGAGCAAUAUUACGCGGC, the “self-splicing fitness (ln)” value runs as follows: (30 °C) -3.5 ± 0.31; (37 °C) -2.33 ± 0.26.

In the case of ACCCAGCAAUAUUACGAAGA, the “self-splicing fitness (ln)” value is -1.74 ± 0.12 (30 °C) and -1.36 ± 0.15 (37 °C).

With GAUAAGCAAUAUUACGGCGG, the “self-splicing fitness (ln)” value (30 °C) was -2.27 ± 0.12 and the “self-splicing fitness (ln)” value (37 °C) is -1.32 ± 0.13.

As for CGGUAGCAAUAUUACGCUCU, the “self-splicing fitness (ln)” value reads like this: (30 °C) -2.71 ± 0.24; (37 °C) -2.43 ± 0.33.

As to UAGUAGCAAUAUUACGUAAG, the “self-splicing fitness (ln)” value is -4.17 ± 0.46 (30 °C) and -1.11 ± 0.23 (37 °C).

With ACAUAGCAAUAUUACGGUCC, the “self-splicing fitness (ln)” value is, setting by setting: (30 °C) -1.91 ± 0.087; (37 °C) -1.77 ± 0.11.

With GGUGAGCAAUAUUACGUCCC, the “self-splicing fitness (ln)” value (30 °C) was -2.23 ± 0.39.

With UGAGAGCAAUAUUACGCUCA, the “self-splicing fitness (ln)” value (37 °C) is -1.22 ± 0.38.

Regarding GUUUAGCAAUAUUACGAAUA, the “self-splicing fitness (ln)” value is -1.58 ± 0.43 (30 °C) and -0.203 ± 0.3 (37 °C).

In the case of AUAAAGCAAUAUUACGCCUG, the “self-splicing fitness (ln)” value runs as follows: (30 °C) 0.243 ± 0.077; (37 °C) -0.132 ± 0.09.

Regarding GUCGAGCAAUAUUACGGUAC, the “self-splicing fitness (ln)” value is -1.98 ± 0.11 (30 °C) and -1.91 ± 0.16 (37 °C).

In the case of GGUUAGCAAUAUUACGCGAU, the “self-splicing fitness (ln)” value by setting is: (30 °C) -2.48 ± 0.23; (37 °C) -3.48 ± 0.46.

With GUGUAGCAAUAUUACGGAGU, the “self-splicing fitness (ln)” value (30 °C) was -2.96 ± 0.17 and the “self-splicing fitness (ln)” value (37 °C) is -2.61 ± 0.29.

With CGUGAGCAAUAUUACGCAAG, the “self-splicing fitness (ln)” value (30 °C) was -2.85 ± 0.15 and the “self-splicing fitness (ln)” value (37 °C) was -0.853 ± 0.13.

With CCUAAGCAAUAUUACGCCGU, the “self-splicing fitness (ln)” value is, setting by setting: (30 °C) -2.92 ± 0.19; (37 °C) -3.22 ± 0.29.

As for GGUUAGCAAUAUUACGCCCU, the “self-splicing fitness (ln)” value runs as follows: (30 °C) -0.754 ± 0.45; (37 °C) -0.983 ± 0.48.

CUCCAGCAAUAUUACGCCAA: the “self-splicing fitness (ln)” value (37 °C) is -2.07 ± 0.27.

Consider CUUAAGCAAUAUUACGGUCA, for which the “self-splicing fitness (ln)” value is -3.8 ± 0.46 (30 °C) and -3.15 ± 0.32 (37 °C).

For UUUCAGCAAUAUUACGCAUC, the “self-splicing fitness (ln)” value was -2.79 ± 0.14 (30 °C) and -0.623 ± 0.11 (37 °C).

UAGCAGCAAUAUUACGAUUU: the “self-splicing fitness (ln)” value reads like this: (30 °C) -2.03 ± 0.11; (37 °C) -0.879 ± 0.12.

Consider GGUCAGCAAUAUUACGACCU, for which the “self-splicing fitness (ln)” value was -3.06 ± 0.3 (30 °C) and -2.07 ± 0.32 (37 °C).

As to CCCCAGCAAUAUUACGGUCC, the “self-splicing fitness (ln)” value was -3.86 ± 0.18 (30 °C) and -2.9 ± 0.27 (37 °C).

With CAGUAGCAAUAUUACGAAAU, the “self-splicing fitness (ln)” value is, setting by setting: (30 °C) -2.86 ± 0.15; (37 °C) -2.54 ± 0.21.

As for GGUAAGCAAUAUUACGUGUC, the “self-splicing fitness (ln)” value was -2.08 ± 0.23 (30 °C) and -0.504 ± 0.3 (37 °C).

Consider UGCGAGCAAUAUUACGCUGU, for which the “self-splicing fitness (ln)” value (30 °C) is -3.76 ± 0.21 and the “self-splicing fitness (ln)” value (37 °C) was -2.24 ± 0.31.

As to ACUAAGCAAUAUUACGUGAG, the “self-splicing fitness (ln)” value (30 °C) was -0.615 ± 0.057 and the “self-splicing fitness (ln)” value (37 °C) is -0.636 ± 0.076.

CCAAAGCAAUAUUACGCGGC: the “self-splicing fitness (ln)” value by setting is: (30 °C) -3.34 ± 0.18; (37 °C) -3.15 ± 0.32.

Take UCUUAGCAAUAUUACGACGG: the “self-splicing fitness (ln)” value reads like this: (30 °C) -0.955 ± 0.15; (37 °C) -0.0318 ± 0.2.

Consider UCAGAGCAAUAUUACGGAAU, for which the “self-splicing fitness (ln)” value runs as follows: (30 °C) -2.94 ± 0.17; (37 °C) -2.22 ± 0.15.

With GCGGAGCAAUAUUACGUGGA, the “self-splicing fitness (ln)” value is, setting by setting: (30 °C) -3.37 ± 0.38; (37 °C) -2.38 ± 0.42.

Take ACUUAGCAAUAUUACGCCAC: the “self-splicing fitness (ln)” value runs as follows: (30 °C) -3.2 ± 0.31; (37 °C) -3.59 ± 0.31.

As for ACCGAGCAAUAUUACGUUGA, the “self-splicing fitness (ln)” value (30 °C) was -2.98 ± 0.17 and the “self-splicing fitness (ln)” value (37 °C) is -2.59 ± 0.21.

As to AGCAAGCAAUAUUACGUAUC, the “self-splicing fitness (ln)” value reads like this: (30 °C) -3.34 ± 0.26; (37 °C) -1.41 ± 0.2.
